In US20230093708A1, “PROTEIN NANOPARTICLE DESIGN AND APPLICATION” (Duke University, priority 2020, published 2023):

B1: RLP40-ELP40: RLP-ELP block co-polypeptide, 40 core and 40 corona repeats (protein)
chain: QYPSDGRGQYPSDGRGQYPSDGRGQYPSDGRGQYPSDGRGQYPSDGRGQYPSDGRGQYPSDGRGQYPSDGRGQYPSDGRGQYPSDGRGQYPSDGRGQYPSDGRGQYPSDGRGQYPSDGRGQYPSDGRGQYPSDGRGQYPSDGRGQYPSDGRGQYPSDGRGQYPSDGRGQYPSDGRGQYPSDGRGQYPSDGRGQYPSDGRGQYPSDGRGQYPSDGRGQYPSDGRGQYPSDGRGQYPSDGRGQYPSDGRGQYPSDGRGQYPSDGRGQYPSDGRGQYPSDGRGQYPSDGRGQYPSDGRGQYPSDGRGQYPSDGRGQYPSDGRGGAGVPGGGVPGAGVPGGGVPGAGVPGGGVPGAGVPGGGVPGAGVPGGGVPGAGVPGGGVPGAGVPGGGVPGAGVPGGGVPGAGVPGGGVPGAGVPGGGVPGAGVPGGGVPGAGVPGGGVPGAGVPGGGVPGAGVPGGGVPGAGVPGGGVPGAGVPGGGVPGAGVPGGGVPGAGVPGGGVPGAGVPGGGVPGAGVPGGGVP
B2: RLP40-ELP160: RLP-ELP block co-polypeptide, 40 core and 160 corona repeats (protein)
chain: QYPSDGRGQYPSDGRGQYPSDGRGQYPSDGRGQYPSDGRGQYPSDGRGQYPSDGRGQYPSDGRGQYPSDGRGQYPSDGRGQYPSDGRGQYPSDGRGQYPSDGRGQYPSDGRGQYPSDGRGQYPSDGRGQYPSDGRGQYPSDGRGQYPSDGRGQYPSDGRGQYPSDGRGQYPSDGRGQYPSDGRGQYPSDGRGQYPSDGRGQYPSDGRGQYPSDGRGQYPSDGRGQYPSDGRGQYPSDGRGQYPSDGRGQYPSDGRGQYPSDGRGQYPSDGRGQYPSDGRGQYPSDGRGQYPSDGRGQYPSDGRGQYPSDGRGQYPSDGRGGAGVPGGGVPGAGVPGGGVPGAGVPGGGVPGAGVPGGGVPGAGVPGGGVPGAGVPGGGVPGAGVPGGGVPGAGVPGGGVPGAGVPGGGVPGAGVPGGGVPGAGVPGGGVPGAGVPGGGVPGAGVPGGGVPGAGVPGGGVPGAGVPGGGVPGAGVPGGGVPGAGVPGGGVPGAGVPGGGVPGAGVPGGGVPGAGVPGGGVPGAGVPGGGVPGAGVPGGGVPGAGVPGGGVPGAGVPGGGVPGAGVPGGGVPGAGVPGGGVPGAGVPGGGVPGAGVPGGGVPGAGVPGGGVPGAGVPGGGVPGAGVPGGGVPGAGVPGGGVPGAGVPGGGVPGAGVPGGGVPGAGVPGGGVPGAGVPGGGVPGAGVPGGGVPGAGVPGGGVPGAGVPGGGVPGAGVPGGGVPGAGVPGGGVPGAGVPGGGVPGAGVPGGGVPGAGVPGGGVPGAGVPGGGVPGAGVPGGGVPGAGVPGGGVPGAGVPGGGVPGAGVPGGGVPGAGVPGGGVPGAGVPGGGVPGAGVPGGGVPGAGVPGGGVPGAGVPGGGVPGAGVPGGGVPGAGVPGGGVPGAGVPGGGVPGAGVPGGGVPGAGVPGGGVPGAGVPGGGVPGAGVPGGGVPGAGVPGGGVPGAGVPGGGVPGAGVPGGGVPGAGVPGGGVPGAGVPGGGVPGAGVPGGGVPGAGVPGGGVPGAGVPGGGVPGAGVPGGGVPGAGVPGGGVPGAGVPGGGVPGAGVPGGGVPGAGVPGGGVPGAGVPGGGVPGAGVPGGGVPGAGVPGGGVPGAGVPGGGVPGAGVPGGGVPGAGVPGGGVP
B3: RLP40-ELPV80: RLP-ELP block co-polypeptide with Val guest residue in the corona (protein)
chain: QYPSDGRGQYPSDGRGQYPSDGRGQYPSDGRGQYPSDGRGQYPSDGRGQYPSDGRGQYPSDGRGQYPSDGRGQYPSDGRGQYPSDGRGQYPSDGRGQYPSDGRGQYPSDGRGQYPSDGRGQYPSDGRGQYPSDGRGQYPSDGRGQYPSDGRGQYPSDGRGQYPSDGRGQYPSDGRGQYPSDGRGQYPSDGRGQYPSDGRGQYPSDGRGQYPSDGRGQYPSDGRGQYPSDGRGQYPSDGRGQYPSDGRGQYPSDGRGQYPSDGRGQYPSDGRGQYPSDGRGQYPSDGRGQYPSDGRGQYPSDGRGQYPSDGRGQYPSDGRGGVGVPGVGVPGVGVPGVGVPGVGVPGVGVPGVGVPGVGVPGVGVPGVGVPGVGVPGVGVPGVGVPGVGVPGVGVPGVGVPGVGVPGVGVPGVGVPGVGVPGVGVPGVGVPGVGVPGVGVPGVGVPGVGVPGVGVPGVGVPGVGVPGVGVPGVGVPGVGVPGVGVPGVGVPGVGVPGVGVPGVGVPGVGVPGVGVPGVGVPGVGVPGVGVPGVGVPGVGVPGVGVPGVGVPGVGVPGVGVPGVGVPGVGVPGVGVPGVGVPGVGVPGVGVPGVGVPGVGVPGVGVPGVGVPGVGVPGVGVPGVGVPGVGVPGVGVPGVGVPGVGVPGVGVPGVGVPGVGVPGVGVPGVGVPGVGVPGVGVPGVGVPGVGVPGVGVPGVGVPGVGVPGVGVPGVGVPGVGVP
B4: RLP80-ELP160: RLP-ELP block co-polypeptide, 80 core and 160 corona repeats (protein)
chain: QYPSDGRGQYPSDGRGQYPSDGRGQYPSDGRGQYPSDGRGQYPSDGRGQYPSDGRGQYPSDGRGQYPSDGRGQYPSDGRGQYPSDGRGQYPSDGRGQYPSDGRGQYPSDGRGQYPSDGRGQYPSDGRGQYPSDGRGQYPSDGRGQYPSDGRGQYPSDGRGQYPSDGRGQYPSDGRGQYPSDGRGQYPSDGRGQYPSDGRGQYPSDGRGQYPSDGRGQYPSDGRGQYPSDGRGQYPSDGRGQYPSDGRGQYPSDGRGQYPSDGRGQYPSDGRGQYPSDGRGQYPSDGRGQYPSDGRGQYPSDGRGQYPSDGRGQYPSDGRGQYPSDGRGQYPSDGRGQYPSDGRGQYPSDGRGQYPSDGRGQYPSDGRGQYPSDGRGQYPSDGRGQYPSDGRGQYPSDGRGQYPSDGRGQYPSDGRGQYPSDGRGQYPSDGRGQYPSDGRGQYPSDGRGQYPSDGRGQYPSDGRGQYPSDGRGQYPSDGRGQYPSDGRGQYPSDGRGQYPSDGRGQYPSDGRGQYPSDGRGQYPSDGRGQYPSDGRGQYPSDGRGQYPSDGRGQYPSDGRGQYPSDGRGQYPSDGRGQYPSDGRGQYPSDGRGQYPSDGRGQYPSDGRGQYPSDGRGQYPSDGRGQYPSDGRGQYPSDGRGGAGVPGGGVPGAGVPGGGVPGAGVPGGGVPGAGVPGGGVPGAGVPGGGVPGAGVPGGGVPGAGVPGGGVPGAGVPGGGVPGAGVPGGGVPGAGVPGGGVPGAGVPGGGVPGAGVPGGGVPGAGVPGGGVPGAGVPGGGVPGAGVPGGGVPGAGVPGGGVPGAGVPGGGVPGAGVPGGGVPGAGVPGGGVPGAGVPGGGVPGAGVPGGGVPGAGVPGGGVPGAGVPGGGVPGAGVPGGGVPGAGVPGGGVPGAGVPGGGVPGAGVPGGGVPGAGVPGGGVPGAGVPGGGVPGAGVPGGGVPGAGVPGGGVPGAGVPGGGVPGAGVPGGGVPGAGVPGGGVPGAGVPGGGVPGAGVPGGGVPGAGVPGGGVPGAGVPGGGVPGAGVPGGGVPGAGVPGGGVPGAGVPGGGVPGAGVPGGGVPGAGVPGGGVPGAGVPGGGVPGAGVPGGGVPGAGVPGGGVPGAGVPGGGVPGAGVPGGGVPGAGVPGGGVPGAGVPGGGVPGAGVPGGGVPGAGVPGGGVPGAGVPGGGVPGAGVPGGGVPGAGVPGGGVPGAGVPGGGVPGAGVPGGGVPGAGVPGGGVPGAGVPGGGVPGAGVPGGGVPGAGVPGGGVPGAGVPGGGVPGAGVPGGGVPGAGVPGGGVPGAGVPGGGVPGAGVPGGGVPGAGVPGGGVPGAGVPGGGVPGAGVPGGGVPGAGVPGGGVPGAGVPGGGVPGAGVPGGGVPGAGVPGGGVPGAGVPGGGVPGAGVPGGGVPGAGVPGGGVPGAGVPGGGVPGAGVPGGGVPGAGVPGGGVPGAGVPGGGVP

Assays:
[1] = Static and dynamic light scattering (SLS/DLS) of block co-polypeptides; format: physicochemical; settings: for Nagg / Rg(nm) / Rh (nm): 10 μM in PBS, 15 °C; for ρ: shape factor Rg/Rh
Procedure: Key parameters of interest are the hydrophilicity of the corona-forming block, the hydrophilicity of the core block, the overall length of the co-polypeptide and the ratio of the two blocks. Parameters of evaluation are the size, morphology, stability, and thermoresponsive behavior. All measurements were made in 140 mM NaCl, 10 mM phosphate buffer, 3 mM KCl, pH 7.4 unless otherwise specified. Size was evaluated by the hydrodynamic radios (Rh) and radius of gyration (Rg) by dynamic light scattering (DLS) and static light scattering (SLS) respectively. Rg and Rh can be combined to yield the shape factor ρ=Rg/Rh, which provides a rough indication of the morphology of the scatterer. […] For an elongated scatterer, the shape factor depends upon the aspect ratio. A combination of temperature dependent turbidity and DLS was utilized to determine the phase behavior of the block co-polypeptides. Cryogenic transmission electron microscopy (Cryo-TEM) was utilized to evaluate the morphology and provide crucial insight into the hydration of the core/corona chains. Stability of the assembled nanostructure was determined by a shift in the I1/I3 fluorescent bands of pyrene as described previously.
Static and dynamic light scattering measurements (SLS/DLS) were performed using an ALV/CGS-3 goniometer system (Langen, Germany). Samples for the ALV/CGS-3 goniometer system were prepared at a concentration of 10 μM in PBS and filtered through 0.45 μm Millex-GV filters into a 10 mm disposable borosilicate glass tube (Fischer). Simultaneous SLS and DLS measurements were obtained at 15° C. of the ELP for angles between 30°-150° at 5° increments, with each angle consisting of 3 runs for 15 s. SLS experiments were only conducted for self-assembling block co-polypeptides, since the molecular weight of a single block co-polypeptide chain is already known, and the Rg of a single chain is likely near or below the detection limit of the SLS instrument. The differential refractive index (dn/dc) was determined by measuring the refractive index at different concentrations using an Abbemat 500 refractometer (Anton Paar, Graz, Austria). DLS data were analyzed by fitting the autocorrelation function with a cumulant fit, using the built-in ALV software. Hydrodynamic radius (Rh) was plotted against angle and extrapolated to zero. SLS data were analyzed by partial Zimm plots using ALVSTAT software in order to determine the Rg and molecular weight (MW).

[2] = Cryo-TEM micelle core size, inter-core spacing and aspect ratio; format: physicochemical; settings: for Spacing (nm): inter-core spacing; for Spacing (nm) / Core radius (nm): mean ± standard deviation
Procedure: Using the data from FIG. 18, particularly the longest straight line of an individual particle and a corresponding perpendicular measurement were made to describe the aspect ratio of particles observed.
Cryo-TEM experiments were performed at Duke University's Shared Materials Instrumentation Facility (Durham, N.C.). Lacey holey carbon grids (Ted Pella, Redding, Calif.) were glow discharged in a PELCO EasiGlow Cleaning System (Ted Pella, Redding, Calif.). A 3 μL drop (10 μM RLPn-ELP80) was deposited onto the grid, blotted for 3 s with an offset of −3 mm, and vitrified in liquid ethane using the Vitrobot Mark III (FEI, Eindhoven, Netherlands). Prior to vitrification, the sample chamber was maintained at 15° C. and 100% relative humidity to prevent sample evaporation. Grids were transferred to a Gatan 626 cryoholder (Gatan, Pleasanton, Calif.) and imaged with a FEI Tecnai G2 Twin TEM (FEI, Eindhoven, Netherlands), operating at 80 keV. Feature sizes and spacing distances were measured in ImageJ by manual measurement of at least 25 particles.

Row | Molecule | hydrodynamic radius (Rh) [1] | radius of gyration (Rg) [1] | shape factor / form factor (Rg/Rh) [1] | Nagg ([1]; Table 3) | Rg(nm) ([1]; Table 3) | Rh (nm) ([1]; Table 3) | ρ ([1]; Table 3) | core radius (cryo-TEM) [2] | spacing between particle cores (cryo-TEM) [2] | Spacing (nm) ([2]; Table 4) | Core radius (nm) ([2]; Table 4) | Nagg ([1]; Table 5) | Rg(nm) ([1]; Table 5) | Rh (nm) ([1]; Table 5) | ρ ([1]; Table 5) | Spacing (nm) ([2]; Table 6) | Core radius (nm) ([2]; Table 6)
1 | B1 | 52.6 nm | 56.2 nm | greater than 1 | 91 | 56.2 nm | 52.6 nm | 1.13 | 11.8 nm | 19.5 nm | 19.5 ± 4.3 nm | 11.8 ± 1.6 nm | – | – | – | – | – | –
2 | B2 | 92.3 nm | 70.8 nm | 0.8 | 246 | 70.8 nm | 92.3 nm | 0.8 | 11.0 nm | 22.3 nm | 22.3 ± 5.2 nm | 11.0 ± 1.6 nm | – | – | – | – | – | –
3 | B3 | – | – | > 1 | – | – | – | – | – | – | – | – | 213 | 33.1 nm | 31.7 nm | 1.04 | 19.4 ± 4.4 nm | 14.5 ± 3.6 nm
4 | B4 | 93.3 nm | 78.2 nm | 0.8 | 1728 | 78.2 nm | 93.5 nm | 0.84 | – | – | 59.0 ± 13.2 nm | 29.3 ± 4.5 nm | – | – | – | – | – | –
